For experiment [1], the target named is T1, human PD-L1 (human, UniProt Q9NZQ7 19-290).
T1 construct: whole, on cells; also called CD274; B7-H1
The experiment can be described thus: flow cytometry on 293T cells transfected with human PD-L1, anti-rabbit Fc detection.
Experimental: (§1) The results were analyzed by flow cytometry using a detection antibody against rabbit Fc (color lines) or isotype control (black line). […] Percentage of cells with positive staining (solid line) is shown with corresponding antibodies and isotype control (shaded). Data are representative of three independent experiments.

In experiment [2] the target is T2, human PD-L2 (human, UniProt Q9BQ51 20-273).
T2 construct: whole, on cells; also called CD273; B7-DC
T2 sequence (looked up): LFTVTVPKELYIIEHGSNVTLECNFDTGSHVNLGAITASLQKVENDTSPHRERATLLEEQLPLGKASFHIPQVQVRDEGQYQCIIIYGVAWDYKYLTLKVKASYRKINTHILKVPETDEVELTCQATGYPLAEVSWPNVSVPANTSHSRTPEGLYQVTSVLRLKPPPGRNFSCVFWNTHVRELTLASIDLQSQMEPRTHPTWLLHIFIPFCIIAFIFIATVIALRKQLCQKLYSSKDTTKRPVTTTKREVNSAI
The experiment can be described thus: flow cytometry on 293T cells transfected with human PD-L2, anti-rabbit Fc detection. In general terms: Flow cytometry measures light scatter and fluorescence of single cells or particles in a stream.
Experimental: as §1

T1 sequence (Q9NZQ7 19-290): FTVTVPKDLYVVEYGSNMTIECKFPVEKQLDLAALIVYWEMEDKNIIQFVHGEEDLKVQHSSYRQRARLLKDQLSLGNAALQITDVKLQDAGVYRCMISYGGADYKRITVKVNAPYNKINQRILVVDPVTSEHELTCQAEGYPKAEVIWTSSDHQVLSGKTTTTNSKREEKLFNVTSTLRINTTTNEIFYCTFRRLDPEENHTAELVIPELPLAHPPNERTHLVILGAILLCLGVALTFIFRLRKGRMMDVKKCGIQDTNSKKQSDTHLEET

B1: sΔ42PD1Fc (soluble Δ42PD1 fused with the rabbit IgG Fc domain) (Fc fusion)
chain: LALLVVTEGDNATFTCSFSNTSESFVLNWYRMSPSNQTDKLAAFPEDRSQPGQDCRFRVTQLPNGRDFHMSVVRARRNDSGTYLCGAISLAPKAQIKESLRAELRVTERRAEVPTAHPSPSPRPAGQLEATNTKVDKTVAPSTCSKPMCPPPELLGGPSVFIFPPKPKDTLMISRTPEVTCVVVDVSQDDPEVQFTWYINNEQVRTARPPLREQQFNSTIRVVSTLPIAHQDWLRGKEFKCKVHNKALPAPIEKTISKARGQPLEPKVYTMGPPREELSSRSVSLTCMINGFYPSDISVEWEKNGKAEDNYKTTPTVLDSDGSYFLYSKLSVPTSEWQRGDVFTCSVMHEALHNHYTQKSISHSPGK
B1: the binding result in experiment [1] was “no binding (tested: 0.5, 2, 5 and 20 µg/ml)”; in experiment [2] it was “no binding (tested: 0.5, 2, 5 and 20 µg/ml)”.

The values above are taken from US20180312564A1 (VERSITECH, published 2018).
